For orientation: stoichiometry N means the number of molecules, sites or subunits per partner or assembly.

The target of the assay is A/equine/NY/49/73 H7N7 hemagglutinin (crystallization construct) (influenza A virus A/equine/NY/49/73 (H7N7)). The experiment in a line: SEC. A general note: In gel filtration, larger molecules generally elute earlier.

“A/equine/NY/49/73 H7N7 hemagglutinin (crystallization construct) (natural protein)” had a stoichiometry N of 3.

Values taken from PMC6750725.
